{"source": "the supplement of paper PMC10567573", "parents": {"B1": {"name": "RIPK4 (parent)", "chain": "VIDLFDEQGLSALHLAAQGRHAQT"}}, "data": [{"variants_of": "B1", "test": "protein stability index of a GFP-peptide fusion (GPS, HEK-293T) (PSI 1-6); higher = more stable", "conditions": "c terminus: a fixed tail appended", "values": [{"variant": "A16L", "protein stability index": 1.85}, {"variant": "A16I", "protein stability index": 2.35}, {"variant": "A16R", "protein stability index": 2.42}, {"variant": "A16F", "protein stability index": 1.99}, {"variant": "A16T", "protein stability index": 3.11}, {"variant": "A16V", "protein stability index": 2.01}, {"variant": "A16G", "protein stability index": 3.27}, {"variant": "A16W", "protein stability index": 1.51}, {"variant": "A16H", "protein stability index": 2.83}, {"variant": "A16M", "protein stability index": 2.4}, {"variant": "A16E", "protein stability index": 3.2}, {"variant": "A16C", "protein stability index": 2.59}, {"variant": "A16Q", "protein stability index": 2.77}, {"variant": "A16P", "protein stability index": 3.42}, {"variant": "A16N", "protein stability index": 3.46}, {"variant": "A16S", "protein stability index": 3.15}, {"variant": "A16D", "protein stability index": 3.55}, {"variant": "A16K", "protein stability index": 2.98}, {"variant": "A16Y", "protein stability index": 2.08}, {"variant": "S11E", "protein stability index": 3.11}, {"variant": "S11Y", "protein stability index": 2.31}, {"variant": "S11R", "protein stability index": 2.03}, {"variant": "S11W", "protein stability index": 2.52}, {"variant": "S11F", "protein stability index": 2.43}, {"variant": "S11D", "protein stability index": 3.04}, {"variant": "S11G", "protein stability index": 2.94}, {"variant": "S11C", "protein stability index": 2.63}, {"variant": "S11T", "protein stability index": 2.63}, {"variant": "S11A", "protein stability index": 2.79}, {"variant": "S11N", "protein stability index": 2.95}, {"variant": "S11M", "protein stability index": 2.18}, {"variant": "S11K", "protein stability index": 2.65}, {"variant": "S11P", "protein stability index": 2.95}, {"variant": "S11I", "protein stability index": 2.13}, {"variant": "S11L", "protein stability index": 2.36}, {"variant": "S11Q", "protein stability index": 2.95}, {"variant": "S11V", "protein stability index": 2.12}, {"variant": "S11H", "protein stability index": 2.51}, {"variant": "L10G", "protein stability index": 3.6}, {"variant": "L10R", "protein stability index": 3.23}, {"variant": "L10F", "protein stability index": 2.83}, {"variant": "L10S", "protein stability index": 3.76}, {"variant": "L10D", "protein stability index": 3.93}, {"variant": "L10H", "protein stability index": 3.19}, {"variant": "L10Y", "protein stability index": 2.75}, {"variant": "L10W", "protein stability index": 2.23}, {"variant": "L10N", "protein stability index": 3.83}, {"variant": "L10P", "protein stability index": 3.63}, {"variant": "L10C", "protein stability index": 3.2}, {"variant": "L10M", "protein stability index": 3.04}, {"variant": "L10T", "protein stability index": 3.08}, {"variant": "L10I", "protein stability index": 2.67}, {"variant": "L10A", "protein stability index": 3.33}, {"variant": "L10E", "protein stability index": 4.48}, {"variant": "L10K", "protein stability index": 3.31}, {"variant": "L10V", "protein stability index": 2.97}, {"variant": "L10Q", "protein stability index": 3.25}, {"variant": "L15Y", "protein stability index": 2.32}, {"variant": "L15N", "protein stability index": 3.8}, {"variant": "L15V", "protein stability index": 3.07}, {"variant": "L15A", "protein stability index": 3.31}, {"variant": "L15T", "protein stability index": 3.51}, {"variant": "L15G", "protein stability index": 3.74}, {"variant": "L15W", "protein stability index": 2.26}, {"variant": "L15E", "protein stability index": 3.47}, {"variant": "L15C", "protein stability index": 2.74}, {"variant": "L15R", "protein stability index": 2.94}, {"variant": "L15I", "protein stability index": 2.81}, {"variant": "L15M", "protein stability index": 3.09}, {"variant": "L15S", "protein stability index": 4.01}, {"variant": "L15D", "protein stability index": 3.39}, {"variant": "L15F", "protein stability index": 2.41}, {"variant": "L15P", "protein stability index": 3.37}, {"variant": "L15K", "protein stability index": 3.39}, {"variant": "L15Q", "protein stability index": 3.3}, {"variant": "L15H", "protein stability index": 3.3}, {"variant": "A12Q", "protein stability index": 3.29}, {"variant": "A12K", "protein stability index": 3.5}, {"variant": "A12M", "protein stability index": 2.46}, {"variant": "A12R", "protein stability index": 3.12}, {"variant": "A12Y", "protein stability index": 2.54}, {"variant": "A12E", "protein stability index": 3.54}, {"variant": "A12I", "protein stability index": 1.91}, {"variant": "A12H", "protein stability index": 2.6}, {"variant": "A12T", "protein stability index": 2.82}, {"variant": "A12G", "protein stability index": 2.39}, {"variant": "A12P", "protein stability index": 3.25}, {"variant": "A12N", "protein stability index": 3.1}, {"variant": "A12V", "protein stability index": 1.99}, {"variant": "A12C", "protein stability index": 2.36}, {"variant": "A12W", "protein stability index": 2.12}, {"variant": "A12S", "protein stability index": 2.96}, {"variant": "A12L", "protein stability index": 1.98}, {"variant": "A12F", "protein stability index": 2.05}, {"variant": "A12D", "protein stability index": 3.21}, {"variant": "G9K", "protein stability index": 2.56}, {"variant": "G9H", "protein stability index": 2.77}, {"variant": "G9E", "protein stability index": 3.13}, {"variant": "G9W", "protein stability index": 1.69}, {"variant": "G9V", "protein stability index": 1.66}, {"variant": "G9R", "protein stability index": 2.4}, {"variant": "G9Q", "protein stability index": 2.75}, {"variant": "G9T", "protein stability index": 2.25}, {"variant": "G9F", "protein stability index": 1.61}, {"variant": "G9A", "protein stability index": 2.76}, {"variant": "G9C", "protein stability index": 2.19}, {"variant": "G9L", "protein stability index": 2.07}, {"variant": "G9S", "protein stability index": 2.68}, {"variant": "G9M", "protein stability index": 1.93}, {"variant": "G9P", "protein stability index": 3.2}, {"variant": "G9Y", "protein stability index": 1.6}, {"variant": "G9D", "protein stability index": 3.16}, {"variant": "G9I", "protein stability index": 1.94}, {"variant": "G9N", "protein stability index": 3.41}, {"variant": "A17F", "protein stability index": 2.47}, {"variant": "A17H", "protein stability index": 2.72}, {"variant": "A17G", "protein stability index": 2.72}, {"variant": "A17I", "protein stability index": 2.69}, {"variant": "A17C", "protein stability index": 2.54}, {"variant": "A17N", "protein stability index": 3.13}, {"variant": "A17M", "protein stability index": 1.99}, {"variant": "A17P", "protein stability index": 2.82}, {"variant": "A17L", "protein stability index": 1.98}, {"variant": "A17K", "protein stability index": 2.8}, {"variant": "A17D", "protein stability index": 3.84}, {"variant": "A17Q", "protein stability index": 2.98}, {"variant": "A17E", "protein stability index": 3.54}, {"variant": "H14Q", "protein stability index": 3.2}, {"variant": "H14T", "protein stability index": 2.95}, {"variant": "H14E", "protein stability index": 4.04}, {"variant": "H14V", "protein stability index": 2.28}, {"variant": "H14G", "protein stability index": 2.6}, {"variant": "H14K", "protein stability index": 2.8}, {"variant": "H14L", "protein stability index": 2.33}, {"variant": "H14D", "protein stability index": 3.6}, {"variant": "H14N", "protein stability index": 3.5}, {"variant": "H14W", "protein stability index": 1.9}, {"variant": "H14C", "protein stability index": 2.1}, {"variant": "H14A", "protein stability index": 2.49}, {"variant": "H14F", "protein stability index": 1.82}, {"variant": "H14M", "protein stability index": 1.89}, {"variant": "H14R", "protein stability index": 3.25}, {"variant": "H14I", "protein stability index": 1.88}, {"variant": "H14S", "protein stability index": 2.55}, {"variant": "H14P", "protein stability index": 3.54}, {"variant": "H14Y", "protein stability index": 2.09}, {"variant": "Q8W", "protein stability index": 1.45}, {"variant": "Q8Y", "protein stability index": 2.25}, {"variant": "L13H", "protein stability index": 3.48}, {"variant": "L13I", "protein stability index": 2.75}, {"variant": "L13D", "protein stability index": 4.04}, {"variant": "L13T", "protein stability index": 3.56}, {"variant": "L13P", "protein stability index": 4.04}, {"variant": "L13F", "protein stability index": 2.87}, {"variant": "L13C", "protein stability index": 2.22}, {"variant": "L13R", "protein stability index": 3.31}, {"variant": "L13W", "protein stability index": 2.82}, {"variant": "L13A", "protein stability index": 3.38}, {"variant": "L13G", "protein stability index": 3.87}, {"variant": "L13N", "protein stability index": 3.3}, {"variant": "L13M", "protein stability index": 3.66}, {"variant": "L13V", "protein stability index": 3.06}, {"variant": "L13S", "protein stability index": 3.58}, {"variant": "L13Q", "protein stability index": 3.8}, {"variant": "L13K", "protein stability index": 3.61}, {"variant": "L13Y", "protein stability index": 2.53}, {"variant": "L13E", "protein stability index": 4.17}]}]}
